Paper doi:10.1101/2023.01.27.525886 (bioRxiv, 2023)

T1: Vtc3-TAPm (S. cerevisiae, UniProt Q02725 1-835)
T1 sequence: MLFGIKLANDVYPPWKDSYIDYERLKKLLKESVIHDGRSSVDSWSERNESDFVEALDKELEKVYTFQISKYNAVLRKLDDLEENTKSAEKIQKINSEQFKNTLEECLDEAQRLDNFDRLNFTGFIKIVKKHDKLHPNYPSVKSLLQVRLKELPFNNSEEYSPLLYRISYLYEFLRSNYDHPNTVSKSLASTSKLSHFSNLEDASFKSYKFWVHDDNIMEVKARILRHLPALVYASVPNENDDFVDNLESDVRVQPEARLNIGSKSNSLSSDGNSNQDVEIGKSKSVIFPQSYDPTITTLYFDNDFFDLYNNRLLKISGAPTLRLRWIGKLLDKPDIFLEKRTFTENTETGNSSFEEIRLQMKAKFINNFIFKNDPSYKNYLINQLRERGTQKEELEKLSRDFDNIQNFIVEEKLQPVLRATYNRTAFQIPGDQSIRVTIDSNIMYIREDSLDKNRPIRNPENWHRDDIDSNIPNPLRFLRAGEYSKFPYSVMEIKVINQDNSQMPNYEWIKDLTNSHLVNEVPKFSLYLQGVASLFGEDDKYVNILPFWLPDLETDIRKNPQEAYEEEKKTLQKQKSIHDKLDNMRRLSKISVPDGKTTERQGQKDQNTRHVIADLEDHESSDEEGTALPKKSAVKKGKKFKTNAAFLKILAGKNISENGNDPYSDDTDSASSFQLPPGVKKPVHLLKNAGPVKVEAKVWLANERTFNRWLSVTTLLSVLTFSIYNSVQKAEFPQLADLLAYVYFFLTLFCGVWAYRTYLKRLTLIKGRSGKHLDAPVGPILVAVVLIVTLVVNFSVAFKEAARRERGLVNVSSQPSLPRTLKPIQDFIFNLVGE

B1: Vtc4 (natural protein)
chain: MKFGEHLSKSLIRQYSYYYISYDDLKTELEDNLSKNNGQWTQELETDFLESLEIELDKVYTFCKVKHSEVFRRVKEVQEQVQHTVRLLDSNNPPTQLDFEILEEELSDIIADVHDLAKFSRLNYTGFQKIIKKHDKKTGFILKPVFQVRLDSKPFFKENYDELVVKISQLYDIARTSGRPIKGDSSAGGKQQNFVRQTTKYWVHPDNITELKLIILKHLPVLVFNTNKEFEREDSAITSIYFDNENLDLYYGRLRKDEGAEAHRLRWYGGMSTDTIFVERKTHREDWTGEKSVKARFALKERHVNDFLKGKYTVDQVFAKMRKEGKKPMNEIENLEALASEIQYVMLKKKLRPVVRSFYNRTAFQLPGDARVRISLDTELTMVREDNFDGVDRTHKNWRRTDIGVDWPFKQLDDKDICRFPYAVLEVKLQTQLGQEPPEWVRELVGSHLVEPVPKFSKFIHGVATLLNDKVDSIPFWLPQMDVDIRKPPLPTNIEITRPGRSDNEDNDFDEDDEDDAALVAAMTNAPGNSLDIEESVGYGATSAPTSNTNHVVESANAAYYQRKIRNAENPISKKYYEIVAFFDHYFNGDQISKIPKGTTFDTQIRAPPGKTICVPVRVEPKVYFATERTYLSWLSISILLGGVSTTLLTYGSPTAMIGSIGFFITSLAVLIRTVMVYAKRVVNIRLKRAVDYEDKIGPGMVSVFLILSILFSFFCNLVAK

Experiments:
[1] = target: T1, Vtc3-TAPm; test: cryo-EM structure
[2] = target: B1; test: cryo-EM structure
[3] = target: the molecule itself; test: cryo-EM structure
[4] = target: T1, Vtc3-TAPm; test: affinity co-purification of the endogenous complex

stoichiometry N [1] [Vtc4 per Vtc3] | stoichiometry N [2] [Vtc1 per Vtc4] | binding result [4] | Binder | binding result [3]
1 |  |  | B1 | 
 | 3 | binds | Vtc1 (natural protein) MSSAPLLQRTPGKKIALPTRVEPKVFFANERTFLSWLNFTVMLGGLGVGLLNFGDKIGRVSAGLFTFVAMGTMIYALVTYHWRAAAIRRRGSGPYDDRLGPTLLCFFLLVAVIINFILRLKYNDANTKL | binds
